The record followed here is patent US20020045591A1, “Methods and therapeutic compositions for treating cancer” (priority 1998, published 2002).

The test system of assay [1] is CHO cells. The assay is described as follows: Immunofluorescence localization in CHO cells. The format is cell-based. As to conditions: stably transfected CHO cells, FIG. 4. From the text:
(§1) Immunofluorescence microscopy: Cells cultured on glass coverslips were fixed with 3% paraformaldehyde in phosphate-buffered saline (PBS) and permeabilized with 0.5% Triton X-100. CHO cells were immunofluorescently labeled as described (Levenberg S. et al. (1998) Long-range and selective autoregulation of cell-cell and cell-matrix adhesions by cadherin or integrin ligands. J. Cell Sci. 111:347-357). Nuclei were visualized using DAPI and the fluorescence was examined using a Zeiss Axiophot microscope and a x100/1.3 Planapochromat objective.

Assay [2] concerns the target T1, β-catenin (Cricetulus griseus, UniProt G3H996).
T1 construct: resulting from the stabilization of the endogenous β-catenin by the transfected cadherin derivatives; endogenous in cells; host or cells: CHO cells, stably or transiently transfected with cadherin derivatives only
T1 sequence (G3H996 1-781): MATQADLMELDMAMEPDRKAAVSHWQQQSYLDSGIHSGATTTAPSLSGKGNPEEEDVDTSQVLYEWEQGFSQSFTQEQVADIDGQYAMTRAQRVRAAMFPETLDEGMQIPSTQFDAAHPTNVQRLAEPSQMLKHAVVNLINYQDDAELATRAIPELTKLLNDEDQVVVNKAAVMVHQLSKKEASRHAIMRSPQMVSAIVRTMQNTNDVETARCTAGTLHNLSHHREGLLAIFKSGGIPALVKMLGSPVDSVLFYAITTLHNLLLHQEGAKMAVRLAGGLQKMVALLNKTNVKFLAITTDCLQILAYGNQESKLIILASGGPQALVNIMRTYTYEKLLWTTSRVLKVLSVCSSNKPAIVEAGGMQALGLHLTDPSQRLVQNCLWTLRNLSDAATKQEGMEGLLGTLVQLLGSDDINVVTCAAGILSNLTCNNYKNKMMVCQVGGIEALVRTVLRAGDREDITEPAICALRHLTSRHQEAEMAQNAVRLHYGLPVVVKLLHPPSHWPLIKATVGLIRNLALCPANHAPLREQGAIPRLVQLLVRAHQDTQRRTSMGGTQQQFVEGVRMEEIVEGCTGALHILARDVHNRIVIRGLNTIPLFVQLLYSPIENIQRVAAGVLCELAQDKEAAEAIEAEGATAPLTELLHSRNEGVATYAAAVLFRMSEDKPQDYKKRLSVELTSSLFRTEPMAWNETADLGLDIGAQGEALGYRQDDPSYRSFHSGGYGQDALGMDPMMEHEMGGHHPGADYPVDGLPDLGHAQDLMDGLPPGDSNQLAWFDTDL
Briefly: β-catenin level in CHO cells by Western blot. The format is cell-based. As to conditions: stably transfected CHO cells, FIG. 2A. The procedure: (§2) Cell culture and transfections: CHO and SW480 human colon carcinoma cells were cultured in Dulbecco's modified Eagle's medium containing 10% fetal calf serum in an 8% CO2 incubator at 37° C. Transfections were performed using Lipofectamine (Gibco, BRL, USA) according to the manufacturer's instructions. Stably transfected CHO clones were generated by co-transfection with a plasmid encoding the puromycin resistance gene. Two days after transfection, cells were replated in the presence of 10 μg/ml puromycin (Sigma, Holon, Israel). Stable clones were isolated 2 weeks later and tested for the expression of the transgene by Western blot analysis.
Immunoblotting and immunoprecipitation: The following antibodies were used: polyclonal pan-cadherin or monoclonal anti cadherin (CH-19) and polyclonal anti β-catenin antibodies were from Sigma (Holon, Israel). Monoclonal anti β-catenin, 5H10 (from M. Wheelock), anti IL2Rα (from UBI), anti flag (M2, from IBI), anti HA (clone 12CA5, from Boehringer Mannheim, Germany), anti GFP (polyclonal, from Clontech, Palo Alto, Calif.), anti LEF-1 (polyclonal, kindly provided by Dr. R. Grosschedl). […]

In assay [3] the test system is β-catenin-mediated transactivation. Briefly: TOPFLASH luciferase transactivation in SW480 cells (Example 1). Format: cell-based, human. The note with it: SW480 cells transfected with TOPFLASH and N-cadherin derivative, FIG. 6A. The method, then: as §2
(§3) Transactivation assays: CHO cells were transfected with TOPFLASH or FOPFLASH vectors (van de Wetering et al., 1997, ibid) and with pCDNA3 coding for β-galactosidase to normalize for transfection efficiency. The transfection mixture also contained either β-catenin, LEF-1 or cadherin derivatives in different combinations, as indicated. SW480 cells were transfected with TOPFLASH and cadherin derivatives. […] The reactions were stopped with 1 M Na2CO3 and the absorbance at 420 nm was determined. […] The luciferase reaction was monitored by a TD-20e luminometer (Turner, USA) and normalized for the β-galactosidase activity. […]

Assay [4] relates to β-catenin-dependent transactivation. Briefly: LEF-1 consensus luciferase transactivation in SW480 cells (Example 2). Format: cell-based, human. As to conditions: co-transfection, FIG. 19A. The procedure:
(§4) Cell Culture and Transfections: Canine kidney epithelial cells MDCK, human fibrosarcoma HT1080, 293-T human embryonic kidney cells, Balb/C mouse 3T3 and human colon carcinoma SW480 cell lines were cultured in Dulbecco's modified Eagle's medium supplemented with 10% calf serum (Gibco, Grand Island, N.Y.) at 37° C. in the presence of 7% CO2. The human renal carcinoma cell line KTCTL60 was grown in RPMI medium and 10% calf serum. Cells were transiently transfected with the cDNA constructs described below, using Ca^2+-phosphate or lipofectamine (Gibco) and the expression of the transgene was assessed between 24 and 48 hours after transfection. In some experiments, the expression of the stably transfected NH2 terminus-deleted β-catenin (Δ57) was enhanced in HT1080 cells by overnight treatment with 2 mM sodium butyrate.
(§5) A plasmid encoding β-galactosidase (0.5 μg) was cotransfected to enable normalization for transfection efficiency. The relevant plasmid expressing catenin constructs (4.5 μg) was co-transfected with the reporter, or an empty expression vector was included. After 24-48 hours expression of the reporter (luciferase) and the control (β-galactosidase) genes were determined using enzyme assay systems from Promega (Madison, Wis.).

Assay [5] deals with T1, β-catenin. Briefly: Co-immunoprecipitation of cadherin derivatives with β-catenin in CHO cells. Format: binding. As to conditions: stably transfected CHO cells, FIG. 2B. From the text: Immunoblotting and immunoprecipitation: The following antibodies were used: polyclonal pan-cadherin or monoclonal anti cadherin (CH-19) and polyclonal anti β-catenin antibodies were from Sigma (Holon, Israel). Monoclonal anti β-catenin, 5H10 (from M. Wheelock), anti IL2Rα (from UBI), anti flag (M2, from IBI), anti HA (clone 12CA5, from Boehringer Mannheim, Germany), anti GFP (polyclonal, from Clontech, Palo Alto, Calif.), anti LEF-1 (polyclonal, kindly provided by Dr. R. Grosschedl). Secondary antibodies for Western blotting were goat anti rabbit or anti mouse conjugated to HRP (Amersham, Buckinghampshire, UK), and for immunofluorescence analysis the secondary antibodies were FITC-goat anti mouse (Cappel, USA) or rhodamine-anti rabbit antibodies (from Jackson Immuno-Research, West Grove, Pa.). Cells were harvested in Laemmli's sample buffer and equal amounts of total cell protein from the different clones, or from transient transfections, were separated by SDS-PAGE, electrotransferred to nitrocellulose and incubated with the different antibodies. For immunoprecipitation, cells were harvested in IP buffer (20 mM Tris pH 8.0, 1% Triton X-100, 140 mM NaCl, 10% glycerol, 1 mM EGTA, 1.5 mM MgCl2, 1 mM DTT, 1 mM sodium vanadate, and 50 μg/ml PMSF). […]

Assay [6] relates to SW480 cells. Briefly: Immunofluorescence localization in SW480 cells (Example 1). The format is cell-based, human. The note with it: transfected SW480 cells, FIG. 6B.
Description: as §1

Assay [7] concerns LEF-1-driven transcription. The assay is described as follows: LEF-1 consensus (TOPFLASH) transactivation in 293 cells. Format: cell-based, human. The note with it: FIG. 18B. The method, then:
as §4, §5

For assay [8], the system named is β-catenin-mediated transactivation. Briefly: TOPFLASH/FOPFLASH luciferase transactivation in CHO cells. Format: cell-based. The note with it: TOPFLASH with LEF-1 and β-catenin vs TOPFLASH and LEF-1 without β-catenin. The method, then: as §2, §3

B1: N-cadherin: Full length chicken N-cadherin cloned into the pECE expression vector (protein)
chain: DWVIPPINLPENSRGPFPQELVRIRSDRDKSLSLRYSVTGPGADQPPTGIFIINPISGQLSVTKPLDREQIASFHLRAHAVDVNGNQVENPIDIVINVIDMNDNRPEFLHQVWNGTVPEGSKPGTYVMTVTAIDADDPNAQNGMLRYRILSQAPSSPSPNMFTINNETGDIITVAAGLDREKVQQYTLIIQATDMEGNPTYGLSNTATAVITVTDVNDNPPEFTAMTFYGEVPENRVDVIVANLTVTDKDQPHTPAWNARYQMTGGDPTGQFTILTDPNSNDGLVTVVKPIDFETNRMFVLTVAAENQVPLAKGIQHPPQSTATVSITVIDVNESPYFVPNPKLVRQEEGLLAGSMLTTFTARDPDRYMQQTSLRYSKLSDPANWLKIDPVNGQITTTAVLDRESIYVQNNMYNATFLASDNGIPPMSGTGTLQIYLLDINDNAPQVNPKEATTCETLQPNAINITAVDPDIDPNAGPFAFELPDSPPSIKRNWTIVRISGDHAQLSLRIRFLEAGIYDVPIVITDSGNPHASSTSVLKVKVCQCDINGDCTDVDRIVGAGLGTGAIIAILLCIIILLILVLMFVVWMKRRDKERQAKQLLIDPEDDVRDNILKYDEEGGGEEDQDYDLSQLQQPDTVEPDAIKPVGIRRLDERPIHAEPQYPVRSAAPHPGDIGDFINEGLKAADNDPTAPPYDSLLVFDYEGSGSTAGSLSSLNSSSSGGEQDYDYLNDWGPRFKKLADMYGGGDD
On to B1, for which the “subcellular localization of cadherin derivative and β-catenin” value in assay [1] is given as “mainly associated with cell-cell junctions”. In addition, the “effect on β-catenin levels” value in assay [2] is on record as “increase in β-catenin levels”. Besides, in assay [3], the “inhibition of TOPFLASH reporter (luciferase) activity” value is on record as “about 70%”. Further, in assay [4], the “effect on constitutive LEF-1 driven transcription” value is “effectively blocked”. The “interaction with β-catenin by co-immunoprecipitation” value in assay [5] is “direct interaction”. Moreover, in assay [6], the “subcellular localization of β-catenin” value is “binding of the endogenous β-catenin to the plasma membrane”.

B2: β-catenin: transfected β-catenin cDNA construct (protein, UniProt P35222 2-781, looked up)
Catenin beta-1: ATQADLMELDMAMEPDRKAAVSHWQQQSYLDSGIHSGATTTAPSLSGKGNPEEEDVDTSQVLYEWEQGFSQSFTQEQVADIDGQYAMTRAQRVRAAMFPETLDEGMQIPSTQFDAAHPTNVQRLAEPSQMLKHAVVNLINYQDDAELATRAIPELTKLLNDEDQVVVNKAAVMVHQLSKKEASRHAIMRSPQMVSAIVRTMQNTNDVETARCTAGTLHNLSHHREGLLAIFKSGGIPALVKMLGSPVDSVLFYAITTLHNLLLHQEGAKMAVRLAGGLQKMVALLNKTNVKFLAITTDCLQILAYGNQESKLIILASGGPQALVNIMRTYTYEKLLWTTSRVLKVLSVCSSNKPAIVEAGGMQALGLHLTDPSQRLVQNCLWTLRNLSDAATKQEGMEGLLGTLVQLLGSDDINVVTCAAGILSNLTCNNYKNKMMVCQVGGIEALVRTVLRAGDREDITEPAICALRHLTSRHQEAEMAQNAVRLHYGLPVVVKLLHPPSHWPLIKATVGLIRNLALCPANHAPLREQGAIPRLVQLLVRAHQDTQRRTSMGGTQQQFVEGVRMEEIVEGCTGALHILARDVHNRIVIRGLNTIPLFVQLLYSPIENIQRVAAGVLCELAQDKEAAEAIEAEGATAPLTELLHSRNEGVATYAAAVLFRMSEDKPQDYKKRLSVELTSSLFRTEPMAWNETADLGLDIGAQGEPLGYRQDDPSYRSFHSGGYGQDALGMDPMMEHEMGGHHPGADYPVDGLPDLGHAQDLMDGLPPGDSNQLAWFDTDL
As for B2, the “activation of LEF-1-driven transcription” value in assay [7] is reported as “potent transcriptional co-activator”. Besides, the “increase in luciferase activity” value in assay [8] is “about 5 fold”.
